# In the supplement of paper PMC5998384:
# What was measured:
# HeLa Kyoto [1] = assay: solubility in G1/S (NP-40 vs SDS abundance) (log2 ratio); higher = more soluble; settings: cell cycle stage: G1/S
# HeLa Kyoto [2] = assay: melting temperature (median over replicates), in situ; higher = more thermally stable
# HeLa Kyoto [3] = assay: solubility change mitosis vs G1/S (difference of NP-40 vs SDS log2 ratios) (log2 ratio difference); higher = more soluble in mitosis
# HeLa Kyoto [4] = assay: thermal stability score vs G1/S (z-score of summed log2 fold changes over temperatures); higher = more thermally stable than in G1/S
# [5] = cell cycle stage: early G1 (4.5 h after nocodazole release)
# 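Throughout, for melting temperature (median over replicates), in situ: HeLa Kyoto cells synchronized by double thymidine or nocodazole block, proteins quantified by TMT10plex mass spectrometry, three independent biological replicates.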
# 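Throughout, for solubility change mitosis vs G1/S (difference of NP-40 vs SDS log2 ratios): synchronized HeLa Kyoto cells (double thymidine block for G1/S, nocodazole release for mitosis), protein amounts in NP-40 versus SDS lysates quantified by mass spectrometry, three biological replicates.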
# 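Throughout, for solubility in G1/S (NP-40 vs SDS abundance): HeLa Kyoto cells arrested at G1/S by double thymidine block, proteins quantified by TMT10plex mass spectrometry in mild NP-40 versus SDS extracts, three biological replicates.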
# 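Throughout, for thermal stability score vs G1/S (z-score of summed log2 fold changes over temperatures): synchronized HeLa Kyoto cells, proteins quantified by TMT10plex mass spectrometry, three biological replicates, mitosis taken 0.5 h after nocodazole release, G1/S directly after double thymidine block.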
Sequence,solubility in G1/S (log2) (HeLa Kyoto [1]),melting temperature (HeLa Kyoto [2]; cell cycle stage: G1/S) [°C],melting temperature (HeLa Kyoto [2]; cell cycle stage: mitosis) [°C],solubility change mitosis (log2) (HeLa Kyoto [3]),thermal stability score (HeLa Kyoto [4]; [5]),thermal stability score (HeLa Kyoto [4]; cell cycle stage: mitosis)
MASNDYTQQATQSYGAYPTQPGQGYSQQSSQPYGQQSYSGYSQSTDTSGYGQSSYSSYGQSQNTGYGTQSTPQGYGSTGGYGSSQSSQSSYGQQSSYPGYGQQPAPSSTSGSYGSSSQSSSYGQPQSGSYSQQPSYGGQQQSYGQQQSYNPPQGYGQQNQYNSSSGGGGGGGGGGNYGQDQSSMSSGGGSGGGYGNQDQSGGGGSGGYGQQDRGGRGRGGSGGGGGGGGGGYNRSSGGYEPRGRGGGRGGRGGMGGSDRGGFNKFGGPRDQGSRHDSEQDNSDNNTIFVQGLGENVTIESVADYFKQIGIIKTNKKTGQPMINLYTDRETGKLKGEATVSFDDPPSAKAAIDWFDGKEFSGNPIKVSFATRRADFNRGGGNGRGGRGRGGPMGRGGYGGGGSGGGGRGGFPSGGGGGGGQQRAGDWKCPNPTCENMNFSWRNECNQCKAPKPDGPGGGPGGSHMGGNYGDDRRGGRGGYDRGGYRGRGGDRGGFRGGRGGGDRGGFGPGKMDSRGEHRQDRRERPY [FUS],-0.295,56.1,54.8,0.333,0.878,-3.18
MASPPRHGPPGPASGDGPNLNNNNNNNNHSVRKCGYLRKQKHGHKRFFVLRGPGAGGDEATAGGGSAPQPPRLEYYESEKKWRSKAGAPKRVIALDCCLNINKRADAKHKYLIALYTKDEYFAVAAENEQEQEGWYRALTDLVSEGRAAAGDAPPAAAPAASCSASLPGALGGSAGAAGAEDSYGLVAPATAAYREVWQVNLKPKGLGQSKNLTGVYRLCLSARTIGFVKLNCEQPSVTLQLMNIRRCGHSDSFFFIEVGRSAVTGPGELWMQADDSVVAQNIHETILEAMKALKELFEFRPRSKSQSSGSSATHPISVPGARRHHHLVNLPPSQTGLVRRSRTDSLAATPPAAKCSSCRVRTASEGDGGAAAGAAAAGARPVSVAGSPLSPGPVRAPLSRSHTLSGGCGGRGSKVALLPAGGALQHSRSMSMPVAHSPPAATSPGSLSSSSGHGSGSYPPPPGPHPPLPHPLHHGPGQRPSSGSASASGSPSDPGFMSLDEYGSSPGDLRAFCSHRSNTPESIAETPPARDGGGGGEFYGYMTMDRPLSHCGRSYRRVSGDAAQDLDRGLRKRTYSLTTPARQRPVPQPSSASLDEYTLMRATFSGSAGRLCPSCPASSPKVAYHPYPEDYGDIEIGSHRSSSSNLGADDGYMPMTPGAALAGSGSGSCRSDDYMPMSPASVSAPKQILQPRAAAAAAAAVPSAGPAGPAPTSAAGRTFPASGGGYKASSPAESSPEDSGYMRMWCGSKLSMEHADGKLLPNGDYLNVSPSDAVTTGTPPDFFSAALHPGGEPLRGVPGCCYSSLPRSYKAPYTCGGDSDQYVLMSSPVGRILEEERLEPQATPGPSQAASAFGAGPTQPPHPVVPSPVRPSGGRPEGFLGQRGRAVRPTRLSLEGLPSLPSMHEYPLPPEPKSPGEYINIDFGEPGARLSPPAPPLLASAASSSSLLSASSPASSLGSGTPGTSSDSRQRSPLSDYMNLDFSSPKSPKPGAPSGHPVGSLDGLLSPEASSPYPPLPPRPSASPSSSLQPPPPPPAPGELYRLPPASAVATAQGPGAASSLSSDTGDNGDYTEMAFGVAATPPQPIAAPPKPEAARVASPTSGVKRLSLMEQVSGVEAFLQASQPPDPHRGAKVIRADPQGGRRRHSSETFSSTTTVTPVSPSFAHNPKRHNSASVENVSLRKSSEGGVGVGPGGGDEPPTSPRQLQPAPPLAPQGRPWTPGQPGGLVGCPGSGGSPMRRETSAGFQNGLNYIAIDVREEPGLPPQPQPPPPPLPQPGDKSSWGRTRSLGGLISAVGVGSTGGGCGGPGPGALPPANTYASIDFLSHHLKEATIVKE [IRS2],-0.000472,50.4,50.3,-0.0828,-0.748,0.717
MASPSLERPEKGAGKSEFRNQKPKPENQDESELLTVPDGWKEPAFSKEDNPRGLLEESSFATLFPKYREAYLKECWPLVQKALNEHHVNATLDLIEGSMTVCTTKKTFDPYIIIRARDLIKLLARSVSFEQAVRILQDDVACDIIKIGSLVRNKERFVKRRQRLIGPKGSTLKALELLTNCYIMVQGNTVSAIGPFSGLKEVRKVVLDTMKNIHPIYNIKSLMIKRELAKDSELRSQSWERFLPQFKHKNVNKRKEPKKKTVKKEYTPFPPPQPESQIDKELASGEYFLKANQKKRQKMEAIKAKQAEAISKRQEERNKAFIPPKEKPIVKPKEASTETKIDVASIKEKVKKAKNKKLGALTAEEIALKMEADEKKKKKKK [KRR1],-1.22,51.3,50.1,0.79,3.32,4.5
MASQPNSSAKKKEEKGKNIQVVVRCRPFNLAERKASAHSIVECDPVRKEVSVRTGGLADKSSRKTYTFDMVFGASTKQIDVYRSVVCPILDEVIMGYNCTIFAYGQTGTGKTFTMEGERSPNEEYTWEEDPLAGIIPRTLHQIFEKLTDNGTEFSVKVSLLEIYNEELFDLLNPSSDVSERLQMFDDPRNKRGVIIKGLEEITVHNKDEVYQILEKGAAKRTTAATLMNAYSSRSHSVFSVTIHMKETTIDGEELVKIGKLNLVDLAGSENIGRSGAVDKRAREAGNINQSLLTLGRVITALVERTPHVPYRESKLTRILQDSLGGRTRTSIIATISPASLNLEETLSTLEYAHRAKNILNKPEVNQKLTKKALIKEYTEEIERLKRDLAAAREKNGVYISEENFRVMSGKLTVQEEQIVELIEKIGAVEEELNRVTELFMDNKNELDQCKSDLQNKTQELETTQKHLQETKLQLVKEEYITSALESTEEKLHDAASKLLNTVEETTKDVSGLHSKLDRKKAVDQHNAEAQDIFGKNLNSLFNNMEELIKDGSSKQKAMLEVHKTLFGNLLSSSVSALDTITTVALGSLTSIPENVSTHVSQIFNMILKEQSLAAESKTVLQELINVLKTDLLSSLEMILSPTVVSILKINSQLKHIFKTSLTVADKIEDQKKELDGFLSILCNNLHELQENTICSLVESQKQCGNLTEDLKTIKQTHSQELCKLMNLWTERFCALEEKCENIQKPLSSVQENIQQKSKDIVNKMTFHSQKFCADSDGFSQELRNFNQEGTKLVEESVKHSDKLNGNLEKISQETEQRCESLNTRTVYFSEQWVSSLNEREQELHNLLEVVSQCCEASSSDITEKSDGRKAAHEKQHNIFLDQMTIDEDKLIAQNLELNETIKIGLTKLNCFLEQDLKLDIPTGTTPQRKSYLYPSTLVRTEPREHLLDQLKRKQPELLMMLNCSENNKEETIPDVDVEEAVLGQYTEEPLSQEPSVDAGVDCSSIGGVPFFQHKKSHGKDKENRGINTLERSKVEETTEHLVTKSRLPLRAQINL [KIF11],-0.0398,48.2,49,-0.143,6,5.17
MASSNTVLMRLVASAYSIAQKAGMIVRRVIAEGDLGIVEKTCATDLQTKADRLAQMSICSSLARKFPKLTIIGEEDLPSEEVDQELIEDSQWEEILKQPCPSQYSAIKEEDLVVWVDPLDGTKEYTEGLLDNVTVLIGIAYEGKAIAGVINQPYYNYEAGPDAVLGRTIWGVLGLGAFGFQLKEVPAGKHIITTTRSHSNKLVTDCVAAMNPDAVLRVGGAGNKIIQLIEGKASAYVFASPGCKKWDTCAPEVILHAVGGKLTDIHGNVLQYHKDVKHMNSAGVLATLRNYDYYASRVPESIKNALVP [BPNT1],0.211,57.5,57.9,-0.0215,-0.366,-1.21
MASSRASSTQATKTKAPDDLVAPVVKKPHIYYGSLEEKERERLAKGESGILGKDGLKAGIEAGNINITSGEVFEIEEHISERQAEVLAEFERRKRARQINVSTDDSEVKACLRALGEPITLFGEGPAERRERLRNILSVVGTDALKKTKKDDEKSKKSKEEYQQTWYHEGPNSLKVARLWIANYSLPRAMKRLEEARLHKEIPETTRTSQMQELHKSLRSLNNFCSQIGDDRPISYCHFSPNSKMLATACWSGLCKLWSVPDCNLLHTLRGHNTNVGAIVFHPKSTVSLDPKDVNLASCAADGSVKLWSLDSDEPVADIEGHTVRVARVMWHPSGRFLGTTCYDRSWRLWDLEAQEEILHQEGHSMGVYDIAFHQDGSLAGTGGLDAFGRVWDLRTGRCIMFLEGHLKEIYGINFSPNGYHIATGSGDNTCKVWDLRQRRCVYTIPAHQNLVTGVKFEPIHGNFLLTGAYDNTAKIWTHPGWSPLKTLAGHEGKVMGLDISSDGQLIATCSYDRTFKLWMAE [PRPF4],-0.454,49.9,49.5,0.223,-0.546,-0.96
MASSSGNDDDLTIPRAAINKMIKETLPNVRVANDARELVVNCCTEFIHLISSEANEICNKSEKKTISPEHVIQALESLGFGSYISEVKEVLQECKTVALKRRKASSRLENLGIPEEELLRQQQELFAKARQQQAELAQQEWLQMQQAAQQAQLAAASASASNQAGSSQDEEDDDDI [DR1],-0.174,58.2,52.7,0.91,-1.34,-0.438
MASSSGSKAEFIVGGKYKLVRKIGSGSFGDIYLAINITNGEEVAVKLESQKARHPQLLYESKLYKILQGGVGIPHIRWYGQEKDYNVLVMDLLGPSLEDLFNFCSRRFTMKTVLMLADQMISRIEYVHTKNFIHRDIKPDNFLMGIGRHCNKLFLIDFGLAKKYRDNRTRQHIPYREDKNLTGTARYASINAHLGIEQSRRDDMESLGYVLMYFNRTSLPWQGLKAATKKQKYEKISEKKMSTPVEVLCKGFPAEFAMYLNYCRGLRFEEAPDYMYLRQLFRILFRTLNHQYDYTFDWTMLKQKAAQQAASSSGQGQQAQTPTGKQTDKTKSNMKGF [CSNK1A1],-0.00541,49.6,50.2,-0.0146,1.17,1.69
MASSSVPPATVSAATAGPGPGFGFASKTKKKHFVQQKVKVFRAADPLVGVFLWGVAHSINELSQVPPPVMLLPDDFKASSKIKVNNHLFHRENLPSHFKFKEYCPQVFRNLRDRFGIDDQDYLVSLTRNPPSESEGSDGRFLISYDRTLVIKEVSSEDIADMHSNLSNYHQYIVKCHGNTLLPQFLGMYRVSVDNEDSYMLVMRNMFSHRLPVHRKYDLKGSLVSREASDKEKVKELPTLKDMDFLNKNQKVYIGEEEKKIFLEKLKRDVEFLVQLKIMDYSLLLGIHDIIRGSEPEEEAPVREDESEVDGDCSLTGPPALVGSYGTSPEGIGGYIHSHRPLGPGEFESFIDVYAIRSAEGAPQKEVYFMGLIDILTQYDAKKKAAHAAKTVKHGAGAEISTVHPEQYAKRFLDFITNIFA [PIP4K2C],0.315,49,48.7,-0.07,0.688,2
MASTSRLDALPRVTCPNHPDAILVEDYRAGDMICPECGLVVGDRVIDVGSEWRTFSNDKATKDPSRVGDSQNPLLSDGDLSTMIGKGTGAASFDEFGNSKYQNRRTMSSSDRAMMNAFKEITTMADRINLPRNIVDRTNNLFKQVYEQKSLKGRANDAIASACLYIACRQEGVPRTFKEICAVSRISKKEIGRCFKLILKALETSVDLITTGDFMSRFCSNLCLPKQVQMAATHIARKAVELDLVPGRSPISVAAAAIYMASQASAEKRTQKEIGDIAGVADVTIRQSYRLIYPRAPDLFPTDFKFDTPVDKLPQL [GTF2B],0.251,49.7,49.4,-0.111,2.28,4
MASTSYDYCRVPMEDGDKRCKLLLGIGILVLLIIVILGVPLIIFTIKANSEACRDGLRAVMECRNVTHLLQQELTEAQKGFQDVEAQAATCNHTVMALMASLDAEKAQGQKKVEELEGEITTLNHKLQDASAEVERLRRENQVLSVRIADKKYYPSSQDSSSAAAPQLLIVLLGLSALLQ [BST2],-0.713,57.4,56.4,0.237,-4.66,-5.14
MASVGECPAPVPVKDKKLLEVKLGELPSWILMRDFSPSGIFGAFQRGYYRYYNKYINVKKGSISGITMVLACYVLFSYSFSYKHLKHERLRKYH [ATP5J2],0.148,53,,-0.104,-0.273,1.63
